Key:
C5aR2 VLP [1] = target: T1, C5aR2 VLP (UniProt Q9P296 1-337); assay: ELISA, C5aR2 VLP immobilized at 30 µg/mL, antibody titrated
C5aR2 VLP [2] = target: T1, C5aR2 VLP; assay: ELISA, C5aR2 VLP immobilized, as in Example 1

T1 sequence (Q9P296 whole entry): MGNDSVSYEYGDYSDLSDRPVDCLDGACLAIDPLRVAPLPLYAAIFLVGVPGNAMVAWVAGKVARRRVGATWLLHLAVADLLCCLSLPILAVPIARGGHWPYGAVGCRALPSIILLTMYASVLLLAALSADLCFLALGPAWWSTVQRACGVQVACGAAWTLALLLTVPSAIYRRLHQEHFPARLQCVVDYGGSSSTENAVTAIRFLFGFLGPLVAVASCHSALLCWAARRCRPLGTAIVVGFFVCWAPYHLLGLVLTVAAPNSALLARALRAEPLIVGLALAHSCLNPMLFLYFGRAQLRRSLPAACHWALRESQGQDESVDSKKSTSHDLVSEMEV

B1: c2139 (antibody, human IgG4 S228P, kappa)
heavy: not shown
light: DVQMTQSPSSLSASVGDRVTITCRASQSIVHSNGNTYLHWYQQKPGKAPKFLIYKVSNRFSGVPSRFSGSGSGTDFTLTISSLQPEDFATYYCAQYTLVPLTFGQGTKLEIKRTVAAPSVFIFPPSDEQLKSGTASVVCLLNNFYPREAKVQWKVDNALQSGNSQESVTEQDSKDSTYSLSSTLTLSKADYEKHKVYACEVTHQGLSSPVTKSFNRGEC
notes: also called humanized Site II antibody; monospecific C5aR1 antibody
Does B1 bind (C5aR2 VLP [1])?
Result: no binding

B2: c2137-e1711 (bispecific antibody, human IgG4 S228P, kappa)
heavy: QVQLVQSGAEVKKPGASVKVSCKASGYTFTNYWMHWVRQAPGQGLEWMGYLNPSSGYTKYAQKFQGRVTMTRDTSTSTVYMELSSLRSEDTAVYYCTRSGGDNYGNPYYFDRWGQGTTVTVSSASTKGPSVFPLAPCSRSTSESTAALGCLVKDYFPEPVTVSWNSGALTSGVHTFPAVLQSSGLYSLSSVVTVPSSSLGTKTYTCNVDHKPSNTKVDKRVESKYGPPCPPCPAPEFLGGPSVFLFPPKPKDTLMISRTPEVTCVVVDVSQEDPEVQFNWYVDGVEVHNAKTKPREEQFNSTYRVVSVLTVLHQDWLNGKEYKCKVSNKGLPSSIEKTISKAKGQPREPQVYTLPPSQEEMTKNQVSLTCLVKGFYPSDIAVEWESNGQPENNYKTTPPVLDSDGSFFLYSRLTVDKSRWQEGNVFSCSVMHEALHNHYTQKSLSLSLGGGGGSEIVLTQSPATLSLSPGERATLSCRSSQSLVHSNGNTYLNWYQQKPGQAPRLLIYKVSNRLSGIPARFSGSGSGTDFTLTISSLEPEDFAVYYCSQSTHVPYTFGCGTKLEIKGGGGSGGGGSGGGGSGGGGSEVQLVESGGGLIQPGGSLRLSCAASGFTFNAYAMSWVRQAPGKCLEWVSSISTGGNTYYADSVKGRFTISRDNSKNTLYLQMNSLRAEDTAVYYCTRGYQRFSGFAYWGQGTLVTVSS
light: DVQMTQSPSSLSASVGDRVTITCRASQSIVHSNGNTYLHWYQQKPGKAPKFLIYKVSNRFSGVPSRFSGSGSGTDFTLTISSLQPEDFATYYCAQSTLVPLTFGQGTKLEIKRTVAAPSVFIFPPSDEQLKSGTASVVCLLNNFYPREAKVQWKVDNALQSGNSQESVTEQDSKDSTYSLSSTLTLSKADYEKHKVYACEVTHQGLSSPVTKSFNRGEC
notes: Tetravalent Fab-Fc-linker-scFv; also called humanized biparatopic antibody; biparatopic C5aR1 antibody
Does B2 bind (C5aR2 VLP [1])?
Result: no binding

B3: c2139-Fcmod (antibody, human IgG4 S228P, kappa)
heavy: not shown
light: DVQMTQSPSSLSASVGDRVTITCRASQSIVHSNGNTYLHWYQQKPGKAPKFLIYKVSNRFSGVPSRFSGSGSGTDFTLTISSLQPEDFATYYCAQYTLVPLTFGQGTKLEIKRTVAAPSVFIFPPSDEQLKSGTASVVCLLNNFYPREAKVQWKVDNALQSGNSQESVTEQDSKDSTYSLSSTLTLSKADYEKHKVYACEVTHQGLSSPVTKSFNRGEC
notes: also called c2139-Fmod; monospecific antibody with modified Fc domain
Does B3 bind (C5aR2 VLP [2])?
Result: no binding

B4: c2137-e1711-Fcmod (bispecific antibody, human IgG4 S228P, kappa)
heavy: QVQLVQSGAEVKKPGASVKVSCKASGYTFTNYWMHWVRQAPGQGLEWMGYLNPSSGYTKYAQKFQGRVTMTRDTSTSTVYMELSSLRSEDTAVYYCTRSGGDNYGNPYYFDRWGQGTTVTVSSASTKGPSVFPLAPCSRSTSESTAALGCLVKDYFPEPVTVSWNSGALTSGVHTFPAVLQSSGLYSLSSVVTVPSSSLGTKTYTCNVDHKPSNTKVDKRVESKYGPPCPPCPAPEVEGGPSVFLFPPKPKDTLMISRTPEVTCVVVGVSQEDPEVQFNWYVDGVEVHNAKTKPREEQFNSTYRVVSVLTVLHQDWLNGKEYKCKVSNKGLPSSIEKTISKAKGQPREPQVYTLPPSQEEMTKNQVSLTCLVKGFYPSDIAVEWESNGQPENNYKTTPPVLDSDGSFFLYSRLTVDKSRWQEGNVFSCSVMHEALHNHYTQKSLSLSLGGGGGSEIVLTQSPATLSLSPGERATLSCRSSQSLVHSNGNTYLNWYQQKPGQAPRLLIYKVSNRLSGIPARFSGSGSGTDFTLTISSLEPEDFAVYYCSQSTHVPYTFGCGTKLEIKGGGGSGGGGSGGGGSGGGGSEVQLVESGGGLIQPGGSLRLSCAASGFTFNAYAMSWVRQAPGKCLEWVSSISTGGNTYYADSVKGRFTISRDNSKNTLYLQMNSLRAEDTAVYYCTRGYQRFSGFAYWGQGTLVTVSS
light: DVQMTQSPSSLSASVGDRVTITCRASQSIVHSNGNTYLHWYQQKPGKAPKFLIYKVSNRFSGVPSRFSGSGSGTDFTLTISSLQPEDFATYYCAQSTLVPLTFGQGTKLEIKRTVAAPSVFIFPPSDEQLKSGTASVVCLLNNFYPREAKVQWKVDNALQSGNSQESVTEQDSKDSTYSLSSTLTLSKADYEKHKVYACEVTHQGLSSPVTKSFNRGEC
notes: Fab-Fc-linker-scFv; also called biparatopic antibody with modified Fc domain
Does B4 bind (C5aR2 VLP [2])?
Result: no binding
